What was measured:
[1] = target: T1, hPD-1 (ECD-His, produced in house) (human, UniProt Q15116 25-170); assay: binding ELISA
T1 construct: extracellular domain; also called coated hPD-1
Protocol: 60 nM of hPD-1 (ECD-His, produced in house) was coated on a Maxisorp plate (Nunc) overnight at 4° C. and blocked with 5% BSA in PBS. […] Absorbance signal after adding TMB was read with a plate reader (Spectramax ID3) at 450 nm. EC50 values were determined by blotting absorbance against concentration (Graphpad Prism, sigmoidal curve fit, 4 PL, X-axis is log).

[2] = target: T2, IL-2R CD122-CD132 on Jurkat-PD1+CD122+ cells (UniProt P14784 27-551; P31785 23-369); assay: cell-based or functional assay
T2 sequence (looked up) 1: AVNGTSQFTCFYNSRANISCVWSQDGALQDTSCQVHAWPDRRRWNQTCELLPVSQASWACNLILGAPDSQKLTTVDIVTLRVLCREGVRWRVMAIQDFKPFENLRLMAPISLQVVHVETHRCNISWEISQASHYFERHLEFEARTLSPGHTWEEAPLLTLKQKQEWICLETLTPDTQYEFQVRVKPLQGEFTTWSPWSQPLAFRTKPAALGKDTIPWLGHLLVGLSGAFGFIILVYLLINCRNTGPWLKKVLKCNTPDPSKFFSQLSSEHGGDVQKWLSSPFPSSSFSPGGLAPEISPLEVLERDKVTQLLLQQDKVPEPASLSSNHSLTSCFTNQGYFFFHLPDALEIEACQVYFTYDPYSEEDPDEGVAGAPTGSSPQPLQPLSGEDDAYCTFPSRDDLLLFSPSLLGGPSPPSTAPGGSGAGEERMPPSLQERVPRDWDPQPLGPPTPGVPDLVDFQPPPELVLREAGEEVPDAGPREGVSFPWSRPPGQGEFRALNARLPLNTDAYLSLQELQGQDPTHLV
T2 sequence (looked up) 2: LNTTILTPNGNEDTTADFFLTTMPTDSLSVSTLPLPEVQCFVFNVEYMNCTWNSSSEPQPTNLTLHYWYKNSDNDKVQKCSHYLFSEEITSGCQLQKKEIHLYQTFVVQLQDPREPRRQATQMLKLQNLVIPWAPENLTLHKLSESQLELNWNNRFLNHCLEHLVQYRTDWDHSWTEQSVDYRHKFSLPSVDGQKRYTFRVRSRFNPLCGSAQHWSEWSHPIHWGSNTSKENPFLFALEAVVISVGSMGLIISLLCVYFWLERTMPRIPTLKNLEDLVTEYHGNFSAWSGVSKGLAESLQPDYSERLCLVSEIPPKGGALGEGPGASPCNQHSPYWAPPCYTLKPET

T1 sequence (Q15116 25-170): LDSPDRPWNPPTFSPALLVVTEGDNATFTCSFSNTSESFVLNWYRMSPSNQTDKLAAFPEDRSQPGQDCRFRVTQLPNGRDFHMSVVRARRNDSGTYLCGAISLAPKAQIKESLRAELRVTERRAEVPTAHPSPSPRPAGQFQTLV

binding result [1]: no binding
EC50 value for pSTAT5 induction, Jurkat-PD-1+CD122+ cells [2]: 5.37 nM
B1: PXU588 (bispecific antibody, human IgG1, kappa, L234A L235A)
heavy 1: EVQLLESGGGLVQPGGSLRLSCAASGFTFSINAMTWVRQAPGKGLEWVSTISGSGFSTYYADSLKGRFTISRDNSKNTLYLQMNSLRAEDTAVYYCAKEVYGDYWGQGTLVTVSSASVAAPSVFIFPPSDEQLKSGTASVVCLLNNFYPREAKVQWKVDNALQSGNSQESVTEQDSKDSTYSLSSTLTLSKADYEKHKVYACEVTHQGLSSPVTKSFNRGECDKTHTCPPCPAPEAAGGPSVFLFPPKPKDTLMISRTPEVTCVVVDVSHEDPEVKFNWYVDGVEVHNAKTKPREEQYNSTYRVVSVLTVLHQDWLNGKEYKCKVSNKALAAPIEKTISKAKGQPREPQVYTLPPSREEMTKNQVSLTCLVKGFYPSDIAVEWESNGQPENNYKTTPPVLDSDGSFFLTSKLTVDKSRWQQGNVFSCSVMHEALHNHYTQKSLSLSPGK
light 1: RSVLTQPPSASGTPGQRVSISCSGASSNIGSSSVFWYQQLPGTAPKLLIYSNNQRPSGVPDRFSGSKSGTSASLAISGLRSEDEADYYCAAWDDSLSIWVFGGGTKLTVLSSASTKGPSVFPLAPSSKSTSGGTAALGCLVKDYFPEPVTVSWNSGALTSGVHTFPAVLQSSGLYSLSSVVTVPSSSLGTQTYICNVNHKPSNTKVDKRVEPKSC
heavy 2: EVQLVQSGAEVKKPGESLKISCKGSGYAFTNYLIEWVRQMPGKGLEWMGVINPGSGGTNYNEKFKGQVTISADKSISTAYLQWSSLKASDTAMYYCARWRGEGYYAYFDVWGQGTTVTVSSASTKGPSVFPLAPSSKSTSGGTAALGCLVKDYFPEPVTVSWNSGALTSGVHTFPAVLQSSGLYSLSSVVTVPSSSLGTQTYICNVNHKPSNTKVDKRVEPKSCDKTHTCPPCPAPEAAGGPSVFLFPPKPKDTLMISRTPEVTCVVVDVSHEDPEVKFNWYVDGVEVHNAKTKPREEQYNSTYRVVSVLTVLHQDWLNGKEYKCKVSNKALAAPIEKTISKAKGQPREPQVYTLPPSREEMTKNQVSLYCLVKGFYPSDIAVEWESNGQPENNYKTTPPVLDSDGSFFLYSKLTVDKSRWQQGNVFSCSVMHEALHNHYTQKSLSLSPGK
light 2: not shown
notes: also called IgG CrossMab 21A08A p2 x QTY065
